Assay: soluble on expression in E. coli; label from the status in PepcDB or PDB records
In the case of “IFSEINIDPTKRVLLYAPTWKTNSSDDDIFPINEQLLKHYNVIYKGHVESKNDLVPEGVIIPPNNIETQDLIIISDVVLTDYSSIIFDALTVDKKGCLYTPNHSQYVEERGVYQDVMDTLKPIWYTDAELLINDLITDSIPQLNNKYTNKNNQSFEYISKLISN”, the “soluble on expression in E. coli” value is reported as “not soluble”. For “MKSIRSRKSRRLRANRRKKRVHQPKLRQKPAKASQSRSRRMSRTDYISENVYIVLVYPKYQGNIGAVARSMWNSGLRHLIIIGNRPDDEAFARSMGGRFILENAEIYDDFASVISRFNVIAATSSTASSNEKHFRRLPLTPEKFWEEMSDQGGKIALVFGREDDGLRNEEIEKCNYFINIPGNPEYPVYNLSHAVAIILYVMFTRFNPPENIEIRAIEPDHEDLMLRNIIEVMRLTSYPEHKIRNTELLLRRLIARSRMSDREYFRMMGVIRRVKESLQRPLENESDHQRN”, the “soluble on expression in E. coli” value was “not soluble”. With “MKQESASQSTPPPSLSPAPSSAQPFWGDGDPQALWIFGYGSLVWKPDFAYSDSRVGFVRGYSRRFWQGDTFHRGSDKMPGRVVTLLEDHEGCTWGVAYQVRGEQVNEALKYLNVREAVLGGYDTKEVTFYPQDTPDQPLTALAYVATPQNPGYLGPAPEEVIATQILACRGFSGHNLEYLLRLADFMQLCGPQAQDEHLEAIVDAVGTLLPCSYLPEQPLALT” the “soluble on expression in E. coli” value was “soluble”. In the case of “MDKIKVGLQYWIPQHGLTRLVGKLASAKAGSLTTAVIRWFIKQYNVNMDEAKHSDPKHFKTFNEFFVRELKEGARPITEGDEIITHPADACVSQFGPIEDGQLIQAKGHNYSAQELLGGDEKLAEEFKDGSFATLYLSPRDYHRVHMPCDGTLRQMIYVPGDLFSVNPLTAENVPNLFARNERVVCIFDTEFGPMAQVLVGATIVGSIEQVWAGTITPPRGNTVYKWDYPAEGDKAVILKKGEEMGRFKLGSTVINLFAKDAIEFDVSMENGQPTVMGTPYALKKLEHHHHHH”, the “soluble on expression in E. coli” value is reported as “soluble”. In the case of “MATLVVNKLGAGVDSGRQGSRGTAVVKVLECGVCEDVFSLQGDKVPRLLLCGHTVCHDCLTRLPLHGRAIRCPFDRQVTDLGDSGVWGLKKNFALLELLERLQNGPIGQYGAAEESIGISGESIIRCDEDEAHLASVYCTVCATHLCSECSQVTHSTKTLAKHRRVPLADKPHEKTMCSQHQVHAIEFVCLEEGCQTSPLMCCVCKEYGKHQGHKHSVLEPEANQIRASILDMAHCIRTFTEEISDYSRKLVGIVQHIEGGEQIVEDGIGMAHTEHVPGTAENARSCIRAYFYDLHETLCRQEEMALSVVDAHVREKLIWLRQQQEDMTILLSEVSAACLHCEKTLQQDDCRVVLAKQEITRLLETLQKQQQQFTEVADHIQLDASIPVTFTKDNRVHIGPKMEIRVVTLGLDGAGKTTILFKLKQDEFMQPIPTIGFNVETVEYKNLKFTIWDVGGKHKLRPLWKHYYLNTQAVVFVVDSSHRDRISEAHSELAKLLTEKELRDALLLIFANKQDVAGALSVEEITELLSLHKLCCGRSWYIQGCDARSGMGLYEGLDWLSRQLVAAGVLDVA”, the “soluble on expression in E. coli” value is reported as “soluble”. For “AEEPTGVFLKKPDSVSVETGKDAVVVAKVNGKELPDKPTIKWFKGKWLELGSKSGARFSFKESHNSASNVYTVELHIGKVVLGDRGYYRLEVKAKDTCDSCGFNIDVEAPR”, the “soluble on expression in E. coli” value was “soluble”. In the case of “MSLKELYLIDALNIIFRNYHVMKNYPLLNTQGENVNAFIGFFKTLFFIIKEKNPEHLIITFDSEVPTFRKQKYPSYKATRDLPPDDLIPQIGWIKEGLLKAKIPIFEMEGYEADDLLASFAKKAAKNNYLTYIISPDKDLLQTMSEYVKILKIENNSFIEMDNEYVTKKFGVNSFQIKDYLAIVGDRSDNIPGIKGIGAKGAANLLREFKTLDGIYSNLEIINKKHRELLIKEKENAFLSYELVSLEENLKIPEIENFALKNFSEEIISLFEKHSAIALIKTYKKDILKQEKENADQKSLFKQEPTTNSLDDINTIDTENVKYRSITTKIELDDLIESLKKAKYISIDTETSSLDTYTAKLIGISISFKEFEGYYIPIEAKGKIYIEKNYIIQKFNNLFESNPKIIGQNYKFDYKILKNNGFNPIPPYFDTMIAAYLIDTNSKVSLDFLAEKYLMHKNIKYEDVIQKNDNFANISLEMATSYSSEDADITFRLFNIFTKKLKEDKLDKLMHEIEMPFNKVIIEMEEGHHHHHH”, the “soluble on expression in E. coli” value is reported as “not soluble”. In the case of “MSLGTLPPELQNTCVARGKLPLLLDLDNTLLHAQAASATGCDVRLQDWIDPYGEPELYRFELPCNRKTYYMKLRPHLRTFLKKLEPFYEMSVYTNATQEYADIVIAILDGNRQLFQDRIVARDSGFRGEASENKAVRRLYEGMDKRCIVAFDDRQNIWTDLPLTHVVKAQHYDFFDSHKTELNAYYPPLSNGIEGMTAPDVLGNRQNEDEGHHHHHH”, the “soluble on expression in E. coli” value is reported as “not soluble”. With “MGSDKIHHHHHHMHTCPRCDSKKGEVMSKSPVEGAWEVYQCQTCFFTWRSCEPESITNPEKYNPAFKIDPKETETAIEVPAVPEPKGLIRVNCMSDRLFELLDGSCLNEKQHEAFVLQTVSEDGWPHAAMISAGEIIALSRTDIRIALWKNTMTSANILRTGKAQFTAWWKGAAYYVKLECAPLPPLKDAEYERDRFSCRIVSVKEDVAKYADLTSGVRIQLHSPEEVLSRWKKTLEDLKR” the “soluble on expression in E. coli” value was “not soluble”. For “YASRDMDIKRLGKAVMAAAGSPGHFPDVAIPGGVRALPDPQALAELRLPENYEESFEPVPYDGFDMMLTSHGTLDPLGDHVTARSGEERITFDLQTWADHVAESRPGDPAPRPLVHGHPYRVGPYAHGEAMVPRSLAEIRRIIADPRLCEGEFRKESSILSGIGVGAVEGPRGLLVHRYVANEDGVLVDCQILTPTAQNEAWLASMLEASLQQDSDRGVELSVENSIRTANPCLPCSSAPEGHMGVVIEKGN”, the “soluble on expression in E. coli” value was “not soluble”. In the case of “MLLTGKLYKEEKQKFYDAQNGKCLICQRELNPDVQANHLDHDHELNGPKAGKVRGLLCNLCDAAEGQMKHKFNRSGLKGQGVDYLEWLENLLTYLKSDYTQNNIHPNFVGDKSKEFSRLGKEEMMAEMLQRGFEYNESDTKTQLIASFKKQLRKSLK”, the “soluble on expression in E. coli” value is reported as “soluble”. For “PQEEVVRLHASSGTTGKPTVVGYTQNDIDTWANVVARSIRAAGGRKGDKVHVSYGYGLFTGGLGAHYGAERLGCTVIPMSGGQTEKQVQLIRDFHPDIIMVTPSYMLNLADEIERQGIDPHDLKLRLGIFGAEPWTDELRRSIEQRMGINALDIYGLSEIMGPGVAMECIETKDGPTI”, the “soluble on expression in E. coli” value was “not soluble”. In the case of “MYEYLLLTRKNALFSLAINEPSPTFALTIIAIFSSTNVRSSVVRLGCFRVEICCTCHTQYLKLEIMVIISYLKYVNLPCSFIFISNSFALVFKISAEV”, the “soluble on expression in E. coli” value is reported as “soluble”. With “MSLSDRVKKIESFTLTLPRETPYLGKPRPGEEPNGRGYLVRKANRTVYPTFDRSVLVRIETENGAVGWGETYGLVAPRATMEIIDDLLADFTIGRDPFDAAAIHDDLYDLMRVRGYTGGFYVDALAAIDIALWDLAGKLAGLPVCKLLGGQRRDRIAAYISGLPEDTRAKRAELAAAWQAKGFSSFKFASPVADDGVAKEMEILRERLGPAVRIACDMHWAHTASEAVALIKAMEPHGLWFAEAPVRTEDIDGLARVAASVSTAIAVGEEWRTVHDMVPRVARRALAIVQPEMGHKGITQFMRIGAYAHVHHIKVIPHATIGAGIFLAASLQASAALANVDCHEFQHSIFEPNRRLLVGDMDCLNGEYVVPTGPGLGVEPSKEAQGLLKKHEGHHHHHH” the “soluble on expression in E. coli” value was “soluble”. In the case of “MSLESKYTVLDMFSGAGGLTEGFFQQGFKFVSHIEKNCHARNSLETRAIYHSLKDSSNERIYRDYISGNLNRDEFIHKFKELELTPAGLLQGEVTESNETTMIKEIKEHLKVIDSDSVDVVIGGPPCQAYSVAGRGRKPKEMKDDPRNYLYRHYISFLKSFEPKIFVFENVPGIKSAINGIIFSNLHEELEKLGYKTEAHMLNAKDFSVLQERNRIIFIGWKNEHDLSYPDFLKTPLGRFHVSSLLNDLPPLQAGEGTEGPAKYTKPFSWSSEYLQRFKIREKKDILIQHNARIHNPRDRTIYRLAIEKWDKERKRLKYNELSPELQTHKNKTSFLDRFKVVNQYGYSHAILAHISKDGHYFIHPDIHQARSLTVREVARIQSFPDNYKFEGPRIAQYAQIGNAVPPLMAKGIAVEIEKMLEEISEGHHHHHH”, the “soluble on expression in E. coli” value is reported as “not soluble”. In the case of “MRTVDFTPLYRNAIGFDRLLNMMENSAAKNAQGGYPPYNIEQKEDNQYRITMAVAGFGDEEIDITQQENTLIVRGERKPEESKNYIYQGIAERDFERKFQLADYVKVTGATMEHGLLHIDLEREIPEAMQPRKIAINGKHLLENK”, the “soluble on expression in E. coli” value is reported as “not soluble”. For “MALNGTPALNVNWHGNYDVIVLGFGGAGASAARFAADNGAHVLVVDAAPFGREGGNTRYSAQHVVTGESLDKLTAYYQALGAPFSTPTKTLNAYLSGMSKIPAYFEKYLGIKAVSWKHDIKPGDAVAIKKTMAEYPELAGSDTIDFALVHKRDKDAALWKLLRQKVLERADNIDVWLDSRAQHLIQDPNTKVIQGVQIKRGERLLNIHANNGVVLAMGGFENNPELKQTYLHSDNLTPLGTLYNRGDGIKMAQEVDAKMWHMTNYESHGILPGLEHHHHHH”, the “soluble on expression in E. coli” value was “not soluble”. In the case of “MAKVTVILTSYNKPNTVGAAIESVLSQSFQDWELWIMDDASNEETQQVIDSYMLYPNVYYYNSQVKDEERHKSTRYATLINEAISRSTGDYLCYLTDDNYYLPERLQKMVQYLERYPSVDVVYSKQLVRTVDNQLITQAERIRPTKGTIRYAENIVDHCSVMHRRSLAEKVYETYGSYWNDDPICWHNGDAFFWNRLSAFALFYPINEVLDVCLKSPTSFQALNAFLPEYLPSGTLVKGLGADVYLIEDNHRRAITPTMFQQLHYREENVVHIPDPVLFKYKEGPAIDEHIWEQGKLFPNHRLIKASQEPHIYYVENHRKRHILTHKEFRLYKFRASEVVEVSRSFLDSIPTGPPISAHVNNQHPLPEGLLVRCGFKFYLSGNNRLYPIKSRVMKKLNLQMKNAVFLDSRAIGRYEQGETIEWKTNKCQPRFNTSSLEHHHHHH”, the “soluble on expression in E. coli” value is reported as “not soluble”. With “MSAAQYARLVPKKYRSKTLPKIDRPWRPRVIAWAGPAAFYPNRFYEVDKWYKARIDKPEKLPEMHIIEPAEHMKSLKVLMQKSEIEQINIGFKRREVAGKAEKSAEDRIELERKSRHMQLKIDIDHLDVENLSIYRHFQVFDHLFGDNIFFENVQNLQVNFENDIVVHSGNVITANSTLKRPEITIESVGNGGGFNTLLMINLDGNALDLGKNGEIVQWMISNIPDGEAISAGSEIIDYLQPLPFYGTGYHRVAFVLFRHEKPVDFQIQGNSLDTRIHEISKFYKKHEATITPSAIRFFQTSYDNSVKMALHGLGMTSPLYEYEHRPALKPAQREFPEKPQPFDLYLDMYRDPKEVEQEMLEKRLAEVKLDYVKEPKWVDTDYVENKKKLPAWLHAKKLERDGVGHAKYHNDL” the “soluble on expression in E. coli” value was “not soluble”. For “MSLASTIMSQEVSWTDILEKHPALRWIKPIPEDWEIFPKHLCAFESFLYVAVGQEVRSLDCRLLKHKNEASHKNFYKKLFNPELDFMIEQICLSKNGRFLAVVGKSKIVILGLRSKLSEQNPLAESVSNFGESVNNFSNSEHQENGTNSLKLSEVTICSVAVINPSSQIVSVRFHPLGKSGRSLVVLTETSLLLYEAGNGVLMPDYEIPLKLTHQASNSFDADVDLHIPTAFCFSNVSQGWGVFTIYILTRGGDVFSVCPVMPANAMIPQDVLKQIRLILTKKEDDADAENHRRNVHWITKLLGEAALANDLSTSEGHHHHHH”, the “soluble on expression in E. coli” value was “soluble”.

— the DeepSol protein solubility set
